Reference: the nanobody polyreactivity screen of Harvey et al. (2022)

test: yeast display, Sf9 membrane polyspecificity reagent, FACS + sequencing; frameworks hold sequencing errors
How it was run: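 In a synthetic yeast display library (Saccharomyces cerevisiae BJ5465), nanobody expression was induced with galactose for 36–48 hours. FACS gates were set low and high (top ~1%) using anti-HA fluorescence for expression and streptavidin fluorescence for binding of the Sf9 membrane reagent. Each polyreactivity label is drawn from the gate of origin.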

Row | Sequence | polyreactivity (PSR sort gate)
1 | QVQLVESGGGLVQAGGSLRLSCAASGSTFPFNAMGWYRQAPGKERELVAVITYSGGSTYYADSVKGRFTISRDNAKNTVYLHMNSLKPVVTAVYYCAADVYYWGSTYYYWGLGTQVTVSS | high polyreactivity
2 | QVQLVESGGGLVQAGGSLRLSCAASGRIFHYNAMGWYRQARGKERQLVAAITGGGGSTYYADSVKGRFTISRDNAKNTVYLEKNSLKPEDTAVYYCAKRYRSSSIRVYYWGLGTQVTVSS | high polyreactivity
3 | QVQLLESGGGLVQAGGSLRLSCAASGIIFGYYAMGWYRQAPGKERELVAAITWSGGSTYYADSVKGRFTISRDNAKNTVYLQMNSLKPEDTAVYYCNADDDGRVSSTIVEYWVQGTQVTVSS | low polyreactivity
4 | QVHLVESGGGLVQAGGSLRLSCAASGSTCYWYTMGWYRKAPGKERELVARISSSGSTNYADSVKGRFTISRDNEKNTVYLLMNILKAEDTAVYYCNIDWFYRGYDYWGQGTQVTVSS | high polyreactivity
5 | QVQLVESGGGLVQAGGSLRLSCAASGFIFYDNAMGWYRQAPGKERELVAAIDWSGDSTYYADSVKGRFTISRDNAKNTVYLQMNSLKPEDTAVYYCAADSQDPGDYYLFDYWGQGTQVTVSS | low polyreactivity
6 | QVQLVESGAGLVQAGGSLRLSCAASGRIFRCYAMGWYRQAPGKERELVAAIRSGGSTNYADSVKGRFTISRDNAKNTVYLQMLSLKPEDTAVYYCATQNIYRIHQSLWGWYGYWGQGTQVTVSS | low polyreactivity
7 | QVRLVESGGGLVQAGGSLRLSCAASGSIFDVYAMGCYRQAPGKERELVATISYGDSSTYYADSVKGRFTISRDTAKNTVYLQMNSLKPEDTAVYYCAADYLTAPRWRQWGEMDYWGQGTQVTVSS | low polyreactivity
8 | QVQLVESGGGLVQAGGSLRLSCAASGRTFRSYAMGWYRQAPGKERELVATITRGSSTNYADSGKGRFTISRDNAKNTVYLQMNSLKPEDTAVYYCNADGKPPYISWLYDYWGQGTQVTVSS | low polyreactivity
9 | QVQLVESGGGLVQAGGSLRLSCAASGRNFYSYVMGWYRQAPGKERELVASIRVSGGSTYYADSVKGRFTISRDNAKNTVYLQMNSLKPEDTAVYYCAAGYRSGVSLWRFYAYYWGQGTQVTVSS | high polyreactivity
10 | QVQLVESGGGIVQAGGSLRLSCAASGSTFRLYAMGWYRQAPGKERELVAAITWSVGSTYYADSVKGRFTISRDNAKNTVYLQMNSLKPEDTAVYYCAADRIGYYLRVSYRGKYDHWGQGTQVTVSS | low polyreactivity
11 | QVQLVESGGGLVQAGGSLRLSCASSGRNFTRNTMGWYRQAPGKERELVAAISGRGGSTYYADSVKGRFTISRDNAMKTVYLQMNSLKPEDTAVDYCAADGVYRGGYDYWGQGTQVTVSS | high polyreactivity
12 | QVQLVESGGGLVQAGGSLRLSCAASGNIFGYYVMGWYRQAPGKERELVAAITWSAGTTNYADSVKGRFTISRDNAKNTVYLQMNSLKPEDTAVYYCAVTWWYQDYDLTWYLYDYWGQGTQVTVSS | low polyreactivity
13 | QVQLVESGGGLVQAGGSLRLSCAASGSTFNGNVMGWYRQAPGKDRELVAGISKSGGTTYYADSVKGRFTISRDNAKNTVYLQMNSLKPEDTAVYYCDARGRVRYYPQYDYWGQGTQVTVSS | high polyreactivity
14 | QVQLVESWRGLVQAGGSLRLSCAASGNTFRWYAMGWYRQEPGKEREFVADITVRGGSTYYADSLKGRFTISRDNAKNTVYLQMNSLKPEQTAVYYCAVDFRRYPGFDYWGQGTQVTVSS | low polyreactivity
15 | QVQLVESGGGLVKAGGSLRLSCAASGRNFNYYAMGWYTQAPGKERELVAAIRSGGSTYYADSVKGRFTISRDNAKYTVYFQMNSLKPEDTAVYYCAKSMSSDAYDSWGQGTKVTVSS | low polyreactivity
16 | QVQLVESGGGLVQAGGSLRLSCAATGSTSVHNAMGWYRQAPGKERELVDAITSDGSTNYADSVKGRFTISRDNAKNTVYLQMNSLKPEDTAVYFCGAAYWTRLRRMDYWGQGTQVTVSS | low polyreactivity
17 | QVQLVESGGGLVQAGGSLRLSCAASGLTFRKYAMGWYRQAPGKERELVAGISSGGSTYYADSVKGRFTISRDNAKNTVYLQMNSLKPEDTAVYYCAAKALRTMYYWGQGTQVTVSS | high polyreactivity
18 | QVQLVESGGGLVQAGGSLRLSCAASGFTFRANGMGWYRQAPGKERELVATITSGGTTNYADSVKGRFTISRDNAKNTVYLQMNSLKPEDTAVYYCAKRFGPAYFRLYDYWGQGTQVTVSS | low polyreactivity
19 | QVQLVESGGGLVQAGGSLRLSCAASGSIFSLYAMGWYRQAPGKERELVAAISRGGSTNYADSVKGRFTISRDNAKNTVYLQMNSLKPEDTAVYYCNAGFGVRRKHITFYTWYDYWGQGTQVTVSS | low polyreactivity
20 | QVQLVESGGGLVQAGGSLRLSCAASGRIITINAMGWYRQAPGKERELVAAITGSAASTYYADSVKGRFTISRDNAKNTVYLQMNILKPEDTAVYYCAVDRRPYSGHGYDYWGQGTQVTVSS | high polyreactivity
21 | QVQLVESGGGLVQAGGSLLLSCAASGGTFYYYTMGWYRQAPGKERELVAAISWSGGSTYYADSVKGRFTISRDNAKNTVYLQMNSLKPEDTAVYYCAALAYVSDYDYWGQGTQVTVSS | high polyreactivity
22 | QVQIVESGGGLVQAGGSLRLSCAASGRTFYLNAMGWYRQAPGKERELVAANRFSGGSTYYADSVKGRFTISRDNAQNTVYLQMNSLKPEDTAVYYCIAGADHALYPTVSEYGYWGQGTQVTVSS | low polyreactivity

Row | Sequence | polyreactivity (PSR sort gate)
23 | QVLLVESGGGLVQAGGSLRLSCAASGRTFRGNAMGWYRQAPGKERELVAAISRSGGTTYYADSVKGRFTISRYNAKNTVYLQMNSLKPEDTAVYYCNRGWATWHGPDDYWGQGTQVTVSS | high polyreactivity
24 | QVQLVESGGGLVQAGGSLRLSCAASGSTFYPYAMGWYRQAPGKERELVAAITTRGRTYYGDSVKGRFTISRDNAKYTVYLQMNSLKPEDTAVYYCNARRYFSRDTSGYNYWGQGTQVTVSS | high polyreactivity
25 | QVQLVESGGGLVQAGGSLRLSCAASGFIFGHNAMGWYRQAPGKERELVASISKSGGDTYYADSVKGRFTISRDNAKNTVYLQMNSLKPEDTAVYYCAAQGAVFEILDYWGQGTQVTVSS | low polyreactivity
26 | QVQLVESGGGLVQAGGSLRLSCAASGSIFVEYAMGWYRQAPGKERELVAGISSGGITSYADSVKGRFTISRDNAKNTVYLQMNSLKPEDTAGYYCATDPYKWFYSSYYLLQEVEYWGQGTQVTVSS | low polyreactivity
27 | QVQLVESGGGLVQAGGSLRLSCAASGSTFVSYVMGWYRQAHGKERELVATSSGRAGRTYYADSVKGRFTISRDNAKNTVSLQMNSLKPEDTAVYYCNAGQWRYPGLYYYWGQATQVTVSS | high polyreactivity
28 | QVQLVESGGGLVQAGGSLRLSCAASGFTFGHYAMGWSRQAPGKERELVAAISKSGTRTYYADSVKGRFTISRDNAKNTVYLQMNSLKPEDTAVYYCATTAYNGYDHWGQGTQVTVSS | high polyreactivity
29 | QVQLVESGGGLVQAGGSLRLSCAASGSTFAGYAMGWYRQAPGKERELVAAIRSGGSTYYADSVKGRFTISRDNAKNTVYLQMNSLKPEDTAVYYCNAVYAFNGYDYWGQVTQVTVSS | low polyreactivity
30 | QVQLVESGGGLVQAGGSLRLSCAASGSIFYYYAMGWYRQAPGKERELVAANDFGGGSTYYADSVKGRFTISRDNAKNTVYLQMNSLKPEDTAVYYCAARTFKDAGSAYGSWGQGTQVTVSS | high polyreactivity
31 | QVQLVESGGGLVQAGGSLRLSLAASGRTFEYYAMGWYRQAPGKERELVAAITSGGITYYADSVKGRFTISRDNAKNTVYLQMNSLKPEDTAVYYCNDRHRYYRYGYWGQGSQVTVSS | high polyreactivity
32 | QVQLVESGGGLGQAGGSLRLSCADSGRTFYKYAMGWYRQSPGKERDLVAAISGSGGSTFYADSVKGRFTISRDNAKNTVYLQMNSLKPEDTAVYYCAKYLRPRIGYRYYYWVQGTQVTVSS | high polyreactivity
33 | QGQLVESGGGLVQAGGSLRIICAASANNFAKYAMGRYRQAPGKERELVAAISKRGGSTYYADSVKGRFTISRDNAKNTVYLQMNSLKPEETAVYYCAQRVLNYQRYDYWGQGTQVTVSS | high polyreactivity
34 | QVQLVESGGGLVQAGGSLRLSCAASGLTFKYYAMGWYRQAPGKERELVAAINRSGSSTYYADSVKGRFTISRDNAKNTVYLQMNSLKPEDTAVYYCAKDSFTSTRQYDYWGQGTQVTVSS | low polyreactivity
35 | QVQLVESGGGLVQAGGSLRLSCAASGSIFDVNGMGWYRQAPGKERELVATISSDGSTNYADSVKGRFTISRDNAKNTVYLQMNSLKPEDTAVYYCAADRHQVSVISTEVYWGQGTQVTVSS | low polyreactivity
36 | QVQLVESGGGLVQAGGSLRLTCDASGRTFYWNAMGWYRQAPGKERELVAAISNCGTTTYYADSVKGRFTISRDNAKNTVYLQLNSLKPEDTAVYYCAADIWYFDYEYWGQGTQVTLSS | high polyreactivity
37 | QVQLVESGGGLVQAGGSLRLSCAASGIIFYHNAMGWYRQAPGKERELVASITEIGGSTYYADSVKGRFTISRDNAKNTVYLQMNSLKPEDTAVYYCAAGTLTSFSRYDYWGQGTQVTVSS | low polyreactivity
38 | QVQLVESGGGLVQAGGSLRLSCAASGFTFAHNAMGWYRQATGKERELVAVISWSGGRTYYADSVKGRFTISRDNAMNTVYLQMNSLKPEDTAVYYCATRHSKFSYGYWGQGTQVTVSS | high polyreactivity
39 | QVQLVESGGGLVQAGGSLRISCASSVRILGVYFMGWYRQAPGKERELVAAISGGGRTNYADSVKGRFTISRDNAKNTVYFQMNRLNPEDTAVYYCNAERPYQFYQCIYSWYYYWGQGTQVTVSS | low polyreactivity
40 | QVQLVESGGGLVQAGGSLRLSCAASGSIFKYYAMGWYRQAPGKERELVAAISFSGGSTYYADSVKGRFTISRDNAKNTVYLQMNSLKPEDTAVYYCAVLGVWGYGYWGQGTQVTVSS | high polyreactivity
41 | QVQLVESGGGLVQSGGSLRLSCAASGFSFRYYAMGWYRQAPGKERELVAAITQSGGTTYYADSVKGRFTISRDNAKNTVYLQMNSLKPEDTAVYYCNGYGYGFTGKGDYWGQGTQVTVSS | high polyreactivity
42 | QVQLVESGGGLVQAGGSLRLSCAASGRIFYAYAMGWYRQAPGKERELVAGITYSGSSTYYADSVKGRFTISRDNAKNTVYLQMNSLKPEDTAVYYCAADLTRVLRYNYWGQGTQVSVSS | low polyreactivity
43 | QVQLVESGGGLVQAGGSLLLSCDASGLTFGYYVMGWYRQAPGKERELVASITNGGGSTYYADSVKGRFTISRDYAKNTVYLQMNSLKPEDTAVYYCAAGSYLRKFDYWGQGTQVTVSS | high polyreactivity
